T1: SMT3–Hairless NTCT fusion protein (residues 232–358) (Drosophila melanogaster, UniProt Q02308 232-358)
T1 sequence: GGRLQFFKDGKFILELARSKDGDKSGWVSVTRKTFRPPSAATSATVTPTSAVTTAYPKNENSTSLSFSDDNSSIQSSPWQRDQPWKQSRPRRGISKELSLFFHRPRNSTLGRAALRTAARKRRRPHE

B1: core Su(H) (amino acids 98–523) (domain or fragment)
chain: not shown

Key:
[1] = target: T1, SMT3–Hairless NTCT fusion protein …; assay: ITC
[2] = target: B1; assay: native gel or EMSA

Row | Binder | stoichiometry N [1] | binding result [2]
1 | B1 | 0.9 | 
2 | GGRLQFFKDGKFILELARSKDGDKSGWVSVTRKTFRPP (domain or fragment) [Hairless NT (amino acids 232–269)] |  | binds
